± gives the uncertainty stated by the source.

Here are results for 80 sequences from the supplement of paper PMC7877785.

The data set can be described thus: self-splicing fitness, log relative to wild type (ln ratio); higher = more splicing; Tetrahymena group I intron in knt gene, E. coli kanamycin selection, DiMSum; sequences stand for … in CUCUCU…GGAGGGAAAAGUUAUCAGGCAUGCACCUGGUAGCUAGUCUUUAAACCAAUAGAUUGCAUCGGUUUAAAAGGCAAGACCGUCAAAUUGCGGGAAAGGGGUCAACAGCCGUUCAGUACCAAGUCUCAGGGGAAACUUUGAGAUGGCCUUGCAAAGGGUAUGGUAAUAAGCUGACGGACAUGGUCCUAACCACGCAGCCAAGUCCUAAGUCAACAGAUCUUCUGUUGAUAUGGAUGCAGUUCACAGACUAAAUGUCGGUCGGGGAAGAUGUAUUCUUCUCAUAAGAUAUAGUCGGACCUCUCCUUAAUGGGAGCUAGCGGAUGAAGUGAUGCAACACUGGAGCCGCUGGGAACUAAUUUGUAUGCGAAAGUAUAUUGAUUAGUUUUGGAGUACUCGUGGUCG
The gist of the method: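 Pooled colonies went to amplicon sequencing on an Illumina HiSeq 2500 after six replicate transformations. The plates were LB agar with 100 μg/mL carbenicillin, 50 μM IPTG and 0.2% rhamnose, with or without 25 μg/mL kanamycin, incubated overnight at 37°C or 30°C. The E. coli BL21(DE3) library had all eight P1ex-region intron nucleotides randomised, the intron placed in the knt kanamycin-resistance gene on pET-22b(+). DiMSum fitness is the error-weighted combination of replicate fold changes, kanamycin against none, normalised to wild type.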

With UAGCAGCAAUAUUACGGUUC, the “self-splicing fitness (ln)” value by setting is: (30 °C) -3.12 ± 0.1; (37 °C) -1.89 ± 0.091.
The like results for GAGGAGCAAUAUUACGAGGU were, in that order, -2.71 ± 0.24 and -3.09 ± 0.25.
Taken in the same sequence, the figures for CUACAGCAAUAUUACGAUAA were -3.02 ± 0.15 and -1.49 ± 0.12.
The like results for CAACAGCAAUAUUACGAUCA were, in that order, -1.6 ± 0.097 and -1.33 ± 0.12.
In the case of UCAAAGCAAUAUUACGACAC, the “self-splicing fitness (ln)” value by setting is: (30 °C) -3.05 ± 0.48; (37 °C) -1.97 ± 0.43.
For the sequence GUGGAGCAAUAUUACGACGA, the “self-splicing fitness (ln)” value (37 °C) was -1.12 ± 0.46.
Consider GUGUAGCAAUAUUACGCGAA, for which the “self-splicing fitness (ln)” value is, setting by setting: (30 °C) -2.15 ± 0.17; (37 °C) -0.555 ± 0.14.
The like results for CUUGAGCAAUAUUACGUCAG were, in that order, -1.6 ± 0.15 and -0.671 ± 0.17.
With UAUUAGCAAUAUUACGCCAU, the “self-splicing fitness (ln)” value (37 °C) was -1.68 ± 0.21.
For CGAAAGCAAUAUUACGGUAG, the “self-splicing fitness (ln)” value is -0.561 ± 0.065 (30 °C) and -0.437 ± 0.085 (37 °C).
Turning to AUAUAGCAAUAUUACGAGGA, under “37 °C”, the “self-splicing fitness (ln)” value is -2.44 ± 0.38.
Regarding UAGCAGCAAUAUUACGGGUU, the “self-splicing fitness (ln)” value was -3.82 ± 0.21 (30 °C) and -1.86 ± 0.16 (37 °C).
Taken in the same sequence, the figures for ACUUAGCAAUAUUACGAGGU were -3.47 ± 0.22 and -1.96 ± 0.21.
In the case of UUGUAGCAAUAUUACGUAGG, the “self-splicing fitness (ln)” value by setting is: (30 °C) -2.12 ± 0.15; (37 °C) -1.04 ± 0.23.
As to GAAGAGCAAUAUUACGGGCC, the “self-splicing fitness (ln)” value (30 °C) is -2.16 ± 0.29.
Turning to AUGGAGCAAUAUUACGAUUU, the “self-splicing fitness (ln)” value is -1.08 ± 0.12 (30 °C) and -1.6 ± 0.16 (37 °C).
As to CUAGAGCAAUAUUACGCAAC, the “self-splicing fitness (ln)” value (30 °C) was -1.32 ± 0.22.
The same measure, in the same setting: with ACUUAGCAAUAUUACGCUGA the figure was -2.63 ± 0.49.
For AUGGAGCAAUAUUACGUGAU, the “self-splicing fitness (ln)” value runs as follows: (30 °C) -2.73 ± 0.088; (37 °C) -0.769 ± 0.08.
In the case of AAAAAGCAAUAUUACGGAAG, the “self-splicing fitness (ln)” value reads like this: (30 °C) -2.88 ± 0.16; (37 °C) -1.38 ± 0.14.
The like results for AUUCAGCAAUAUUACGCGCG were, in that order, -0.817 ± 0.12 and 0.873 ± 0.15.
The like results for UCUAAGCAAUAUUACGCGUG were, in that order, -1.43 ± 0.087 and -1.15 ± 0.11.
On to CGGGAGCAAUAUUACGUGUA, for which the “self-splicing fitness (ln)” value was -4.05 ± 0.39 (30 °C) and -1.47 ± 0.22 (37 °C).
On to AACGAGCAAUAUUACGAUCC, for which, for the setting “30 °C”, the “self-splicing fitness (ln)” value is -2.01 ± 0.38.
CUAGAGCAAUAUUACGAGGC: the “self-splicing fitness (ln)” value reads like this: (30 °C) -3.08 ± 0.26; (37 °C) -1.02 ± 0.23.
Taken in the same sequence, the figures for CAUCAGCAAUAUUACGCAUG were -2.03 ± 0.11 and -2.23 ± 0.13.
Taken in the same sequence, the figures for ACUAAGCAAUAUUACGCGCC were 0.0442 ± 0.11 and -0.687 ± 0.14.
On to ACUCAGCAAUAUUACGUCGG, for which the “self-splicing fitness (ln)” value is -1.74 ± 0.07 (30 °C) and -1.25 ± 0.084 (37 °C).
Turning to GUGGAGCAAUAUUACGGCUU, where the note is “30 °C”, the “self-splicing fitness (ln)” value is -1.6 ± 0.28.
On to UUACAGCAAUAUUACGGGAU, for which the “self-splicing fitness (ln)” value reads like this: (30 °C) -3.85 ± 0.21; (37 °C) -2.69 ± 0.13.
The like results for UGAUAGCAAUAUUACGUUCU were, in that order, -1.68 ± 0.11 and 0.264 ± 0.11.
Taken in the same sequence, the figures for GUGCAGCAAUAUUACGUCCA were -1.53 ± 0.28 and -0.793 ± 0.27.
The like results for CUCAAGCAAUAUUACGACUA were, in that order, -2.02 ± 0.31 and -2.64 ± 0.34.
Take CAGCAGCAAUAUUACGCACU: the “self-splicing fitness (ln)” value runs as follows: (30 °C) -0.834 ± 0.1; (37 °C) -1.8 ± 0.12.
As to CGACAGCAAUAUUACGUGCA, the “self-splicing fitness (ln)” value is, setting by setting: (30 °C) -1.57 ± 0.057; (37 °C) -0.14 ± 0.07.
Take GGUGAGCAAUAUUACGUUGA: the “self-splicing fitness (ln)” value was -2.7 ± 0.43 (30 °C) and -1.05 ± 0.18 (37 °C).
Regarding UUAUAGCAAUAUUACGGUCG, the “self-splicing fitness (ln)” value by setting is: (30 °C) -0.705 ± 0.11; (37 °C) 0.176 ± 0.15.
Turning to UGGAAGCAAUAUUACGGCUU, the “self-splicing fitness (ln)” value is, setting by setting: (30 °C) -2.94 ± 0.32; (37 °C) -1.73 ± 0.45.
Consider GCCAAGCAAUAUUACGCCUU, for which the “self-splicing fitness (ln)” value (30 °C) was -2.83 ± 0.13 and the “self-splicing fitness (ln)” value (37 °C) was -1.26 ± 0.12.
On to AGGGAGCAAUAUUACGCUAA, for which the “self-splicing fitness (ln)” value (37 °C) was -2.1 ± 0.49.
For ACCGAGCAAUAUUACGAGUC, the “self-splicing fitness (ln)” value is -4.62 ± 0.3 (30 °C) and -3.25 ± 0.22 (37 °C).
The like results for GAAUAGCAAUAUUACGGGAC were, in that order, -3.37 ± 0.31 and -2.53 ± 0.3.
The like results for GGACAGCAAUAUUACGAAAA were, in that order, -1.42 ± 0.19 and -1.36 ± 0.15.
As for GAACAGCAAUAUUACGGCCG, the “self-splicing fitness (ln)” value reads like this: (30 °C) -2.39 ± 0.11; (37 °C) -0.46 ± 0.14.
As for AUCAAGCAAUAUUACGCUUC, the “self-splicing fitness (ln)” value (37 °C) is -2.01 ± 0.46.
Take UAAAAGCAAUAUUACGCCGC: the “self-splicing fitness (ln)” value (37 °C) was -1.17 ± 0.23.
The same measure, in the same setting: with UCGUAGCAAUAUUACGGGCU the figure was -2.41 ± 0.49.
As to GCAAAGCAAUAUUACGACUU, the “self-splicing fitness (ln)” value (30 °C) was -0.0792 ± 0.067 and the “self-splicing fitness (ln)” value (37 °C) is -0.0895 ± 0.087.
For the sequence CCAUAGCAAUAUUACGUUGA, the “self-splicing fitness (ln)” value by setting is: (30 °C) -3.57 ± 0.26; (37 °C) -2.31 ± 0.15.
Turning to GAAUAGCAAUAUUACGUGAC, the “self-splicing fitness (ln)” value is -3.51 ± 0.28 (30 °C) and -1.43 ± 0.2 (37 °C).
Taken in the same sequence, the figures for CAUCAGCAAUAUUACGACCA were -1.38 ± 0.19 and -1.1 ± 0.19.
On to AUGUAGCAAUAUUACGAGUU, for which the “self-splicing fitness (ln)” value is, setting by setting: (30 °C) -1.68 ± 0.11; (37 °C) -0.948 ± 0.11.
Take CAUCAGCAAUAUUACGCGGA: the “self-splicing fitness (ln)” value (30 °C) was -3.61 ± 0.27 and the “self-splicing fitness (ln)” value (37 °C) was -2.6 ± 0.29.
The like results for UUUAAGCAAUAUUACGCCUA were, in that order, -1.34 ± 0.21 and 0.351 ± 0.21.
In the case of UUGUAGCAAUAUUACGAUGC, the “self-splicing fitness (ln)” value (37 °C) is -1.92 ± 0.43.
Regarding UAAUAGCAAUAUUACGUGCA, the “self-splicing fitness (ln)” value (30 °C) is -1.36 ± 0.11 and the “self-splicing fitness (ln)” value (37 °C) is -1.34 ± 0.099.
The like results for AAUCAGCAAUAUUACGGCAA were, in that order, -0.417 ± 0.074 and 0.747 ± 0.091.
The like results for CGGCAGCAAUAUUACGGGCA were, in that order, -2.31 ± 0.26 and -0.644 ± 0.13.
Turning to CCCAAGCAAUAUUACGGCCA, the “self-splicing fitness (ln)” value reads like this: (30 °C) -3.58 ± 0.31; (37 °C) -1.58 ± 0.16.
Taken in the same sequence, the figures for UAGGAGCAAUAUUACGGCUG were -0.891 ± 0.16 and 0.65 ± 0.2.
Taken in the same sequence, the figures for UUGAAGCAAUAUUACGGCCU were -0.822 ± 0.13 and -0.147 ± 0.16.
For the sequence GUAGAGCAAUAUUACGCGUC, the “self-splicing fitness (ln)” value by setting is: (30 °C) -0.836 ± 0.18; (37 °C) -0.0736 ± 0.22.
The like results for CACCAGCAAUAUUACGAACA were, in that order, -3.14 ± 0.17 and -0.953 ± 0.14.
In the case of ACCGAGCAAUAUUACGAACC, the “self-splicing fitness (ln)” value (30 °C) is -2.9 ± 0.39.
For the sequence AUGGAGCAAUAUUACGUGAC, the “self-splicing fitness (ln)” value was -1.88 ± 0.22 (30 °C) and -2.11 ± 0.28 (37 °C).
Consider AGAUAGCAAUAUUACGGAAA, for which the “self-splicing fitness (ln)” value was -3.51 ± 0.37 (30 °C) and -2.34 ± 0.25 (37 °C).
For UGGAAGCAAUAUUACGGUUA, the “self-splicing fitness (ln)” value by setting is: (30 °C) -1.04 ± 0.11; (37 °C) -0.0733 ± 0.099.
The like results for UUGAAGCAAUAUUACGCAUA were, in that order, -0.461 ± 0.072 and 0.189 ± 0.1.
Regarding AUCGAGCAAUAUUACGCGGU, the “self-splicing fitness (ln)” value was -2.9 ± 0.27 (30 °C) and -1.4 ± 0.22 (37 °C).
As to UCUCAGCAAUAUUACGCCUU, the “self-splicing fitness (ln)” value (30 °C) was -3.77 ± 0.33 and the “self-splicing fitness (ln)” value (37 °C) was -2.15 ± 0.21.
The like results for GCGCAGCAAUAUUACGAGGA were, in that order, -1.89 ± 0.3 and -0.618 ± 0.16.
Taken in the same sequence, the figures for AUGAAGCAAUAUUACGAGCG were 0.0672 ± 0.066 and 0.405 ± 0.085.
The like results for AACAAGCAAUAUUACGCGGU were, in that order, -3.69 ± 0.14 and -2.03 ± 0.11.
In the case of CAAAAGCAAUAUUACGGUGU, the “self-splicing fitness (ln)” value runs as follows: (30 °C) -4.34 ± 0.22; (37 °C) -2.36 ± 0.19.
CGCGAGCAAUAUUACGCGCU: the “self-splicing fitness (ln)” value (37 °C) was -1.67 ± 0.32.
For UACGAGCAAUAUUACGUACA, the “self-splicing fitness (ln)” value (30 °C) was -0.833 ± 0.27 and the “self-splicing fitness (ln)” value (37 °C) is -1.22 ± 0.48.
Regarding AAGUAGCAAUAUUACGUGCU, the “self-splicing fitness (ln)” value runs as follows: (30 °C) -1.29 ± 0.08; (37 °C) -0.982 ± 0.1.
The like results for CACCAGCAAUAUUACGGGAG were, in that order, -2.61 ± 0.067 and -1.26 ± 0.076.
As to UGACAGCAAUAUUACGGCCG, the “self-splicing fitness (ln)” value (30 °C) is -0.739 ± 0.14 and the “self-splicing fitness (ln)” value (37 °C) was 0.186 ± 0.19.
Turning to GGGGAGCAAUAUUACGUUUG, the “self-splicing fitness (ln)” value (37 °C) was -2.43 ± 0.37.
